The nature of the data set: protease stability score; higher = more stable; yeast display proteolysis, trypsin and chymotrypsin.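 Also: relative to predicted unfolded state with 0 unfolded-like and 1 meaning tenfold more protease.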
The sequence “EEDREWVERIIRHYREAELTGDEDRMKELVDPNTRFHIDGVVYHGMDEWTRYVRELRMRSRTRVHQVRVIDGRIEADFEYEIHIEINGVQIDRRQEVILIFKKVNGKWIVERVIVV” returned a protease stability score of 1.93.
To “SEHEEELHKFFEEFLKAVETGDWRRLMELIDPHARLHIHQGEKEDHDHGRKFLKEFLKRYPNLRIQVTSLRIDVIDGVAIIILRGHDDVNGVELHSTIRIVVTKVNGQWRVEEVEIRIR” belongs 1.38.
To “SEDEEAVHKMLEMWIKHINTGDERHLHKLADPNYRVEQGDKELHGRHAYEYVFHQFDHWKEIRIEEVKTYDGRVKIKGREVYHINGQEIESEVRIITTKVDGQWHLKSILFK” belongs 0.525.
The figure for “DEVEKSVKEWVNIVIHWLKTGNEEEILKYADPNVRLNVNGVNYVGRENAEHASREHLHELGIKHEEQKDVKIHSINGRMLLIIHMRLEYDGQHHEVTIIVRTIKINGRWHIHEVEIRND” is 1.21; for “DEDHKIIEKLFRHWLELLLTGDEEEIEKQMDPHARIIINGRHTHGRDDIRRLLEEIRIRHLDIERLEIRIYGNKAVALSETRVEVRIGDKEFHVDYRIILIIEKVDGRWVKRSLELIVV” it is 1.71; for “DDHEHFHREIWRTWLELQLTGDPHRLERLADPHVRFVYGDKVFHGREKMSEHFERENRELGIDHVEVRIKDSRFIDGRVHHDSELIIRVDGRTYKHDVKVIIDKVDGRWNIQKVEIR” it is 1.07.
Consider “SERHELVVRIVRLWIRMIRTGNEELYMRLADPHVKLDVNGREMHGRERSTEMWSELRIRHLHTEHIEVAENRFVVHGRLVTEFNGKEHDVKVVIHVEIVDGRIKEEEYHIL”, for which the protease stability score is 1.29.
To “DKEKEDLKKLSDWWLHAIETGDFETIFRLLDPHVRIEINIGDKTHSIHGREEFYKWLHRVKNLQMTIHHSEPIGDKIRLHGFFVIDGVHHDTRHELYFIDGRLHEVHIHVI” belongs 2.21; to “SDWNEFLIEVAELLLRWLSTGDEESFHRYVDPRVRLEFNGKELHGREELARFLRHLRWILDHLEFTSREDQGEKFRVEGKSHGHLFFENHFERHDLKNDLNLILVNGRIKEISLRLE”, 1.42.
To “DEEKKFIHYLAHLLIELILTGDEDTFEKLADPDVRLSIFAENHELHWHGREEVLRELIHWTRRVDHIHMKLDHSRIINGKSHMDGNLVDIQGDKKIEKKVTVILVVVNGKVKRIEIWIG” belongs 1.47; to “SEDDKRLREIADLWKHAFLTGDFNLIHKLMDPHARWVVNGQHVHGMEEWEHFLERIDVFRIESSRTDHIEVYGDKVQIDGHSNVKIQIGDKKIDLITRMEIRLIIINGRYHQVEHIVR”, 0.707; to “DEEEHEAKRADEVYQHVMETGDERLLNEYFDPHYRLEQGDYELVGREEASRFLIEWMKHWRTEYRLDNYHVIGNKIRLEGELHIRYGNFTRSHRIVTYVLKVDGQWRIKKTEIR”, 1.64.
Turning to “LEFEEHLHRWVNFYLNVHRTGDEEHIEKLADPDMRIEVGDKELHGRERAYEFWRRYLEEARLHDMKIRSVELVGDKIILDTEIHSIVGDKHIRERLEIILTKINGRWMLKSMRVQ”, the protease stability score is 1.45.
The figure for “SEDEEDMTHAIEEIEHFWMTGDWKKMHDLADPHVKTIINGREQHGRRHMIEAIKDSRRRLGVNYIHSVSNKHFDLQGNKVHSDIRIDVDVNGKHIDLELEVDIVKVDGKWQLSHLKIV” is 0.931; for “DEKHELTKRLVELFLHAMHTGNEDLLHEYMDPNVKLVVNGQEHHGRELANSVIRRMIEELRLKDSKIKDIEFQGEKVHLDVHLHFRQGDKHITLDARIILLKVDGRWVIESLIFH” it is 1.76.
Turning to “DEKEEFTRRFAQILIELWKTGDEEDMNNNMDPDVQNHSEFNGREVHLIGMELYVEHSEQWLNRVKNARIIWRHVDAQGDKILIHGDLIVNGKRIHVELDFYIVNGRIKSITIHER”, the protease stability score came out at 2.02.
The figure for “SEDEHHLERALKEWIKVFETGDEDKEKKMADPHMRTDINGVELHGRELMITLIVELWEKLGVDHLEFNLSRFEIVNGQVFLHMEENLFVNGQRLRFKHEIIFNKVDGRWIVEEIRIH” is 1.26; for “HDDEEIIKREIDFFLEVLLTGDWRHLNELLDPHARLEIGDKRFHGREAVIKEIRTFIERFGVDHSEIDTVNIQGEKAEYKFTLKVGDKRHELHITMTKINGRWYITEVKFS” it is 1.79; for “TEDEKIAKDTLEEITEALATGDEDQLNRLMDPNVKIFFNGQEIHGRHDSVKYWREIRIRDSHIIIRHVDIQGDKIRLDGEYQLRGEIDGQEIERTMHVRLFMHKVNGRWIVRRQVWG” it is 1.56.
As for “DEHRELEERMHELIQKANETGDWERWMELADPHTRLIVGDKEFHGMERSYEHILELFRRLGVERVEVRIERRDEQGEKINLDVIIIIGDKTIRLILIIYKVDGRWLLRSVEIR”, the protease stability score was 1.63.
The figure for “DEERKFLKKMHEILDKSERTGNEEDIMRLVDPEVRLTVGDKELHGWSAMHEYFKRWIDKFPGVRVHFELNDITIVDGRILNIVHTKFEFDGREFQLTATIFAHKYDGRWTLTSMRYE” is 1.09.
The figure for “DDLHRNMKKVADLFIQVWLTGDFEELMHLFDPNVRLKVNGVEMHGRDDFAKFVKEHRERIDHMHFRLDELRIYGDKIVIHGTLHLHQGEKDWHHEVHIHLLVIDGVIRTVEEEER” is 2.08.
In turn, “SELEKYSKLMLDLILHSRLTGDEEHHEKLMDPNVRIEIGDKELHGRELAVKWMSHWRLEELRVRHIHNQGDKINVDVEEVETVDGVRIRFRSELIILKVDGQWLNHSIITR” showed a protease stability score of 1.16.
“DEDEERMHWMVEVLLRMLETGNEEIVKRLVDPNARVHTEDHSSMGREEFSRFMLELAKRFDVFHDVELKHVEVQGEKIILDGKFHIEVNGRRNYLDIELIIIKIDGRWKIEEVRFH” yielded a protease stability score of 1.25.
To “DEEERLLEELARLFLHLWRTGDEDTMLHLADPNTRSRINGVEQHGMELTNKFLEELLRHIRIKHLKITHSYAFDGRVFMHTLMHRTVDGKEETVWVEIILVVFNGKLKEYEVRFK” belongs 1.3; to “DDDEKDLEKLIREVMEIIWTGDEDTFRHFMDPNTRLFIDGKIIVGMEEIMRRWHELLRKFGVDKIEVRLDDFKIIGNKIELHFEIMIGDKRFKTQTIFEKIDGRWILHSRFIH”, 2.01; to “DERTHHLEQLYRRMYEHWETGDEKFHRELLDPHARVDINGQDVHGMHWIEEEMRMQREHIRIEHVIIKSIEIVDGKIHMNGIILGDINGRRVNVEVRFHVIIINGKARLVEVKIL”, 0.025.
Turning to “SEREEDTEHHMRMLIKDHETGDWRSWKKLVDPHVKLEINGREHHGRELALHMFRRVDHIESTVRDRTIQGDKVHHDGHLIINVDGVNIIVRSEIILIKVDGQWRIEILIFR”, the protease stability score came to 0.957.
The figure for “SEEEEILRRSVEVTLEAFKTGNERILREYLDPHVRFLYNGQEYHGWKDFVRFLINEVRRFDHVEIRLDHWEMQGEKAHFHGRLILDVNGRLEIFRVHIHLFKVDGKWTLRELRIE” is 1.83; for “DEMEEESHTVLKLIVESFRTGDEEEVRHLADPNVRLDVDGQRNHGWKMLLKFFRQIRWHDVELHDIELQGDKMHIIGHVDGNVNGRRRRLDTHILLVKIDGKWRLELVHIH” it is 1.55.
To “DEDKEILHKMVEILRHALQTGDEDRLSEMFDPNVRLEINGREEWGREIFRDKHRQLGVDHLHIIIRRVHIQGEYAHIDTEYRIHVNGKTLETRVEVIALKIDGKWLIRQVIFT” belongs 1.14.
As to “DEIREESERFARKLVHDWQTGDWRSLLLLMDPNVRLILHFNGVEYRFHGMEIVLEWLKRLIERVDHVFFHVKDIRIQGDKIELRIEEEFRQGDKSRRHDVVLHLVVIDGKIKSISFEVL”, the protease stability score turned out to be 2.7.
To “DDIEETFRHYLDQWIRDLRTGDEEALYRLADPNARHKINGQHLHGRELHDHEFNRIKNLKVDFVTRDIRIIGDKLIIHGEMIIRINGRQISIDTEIYLRKIDGRWFVEQVNVG” belongs 0.305; to “SEEEKIVDERIKILLESWDTGDWDSFIKMLDPNALSIVGEFVMHGRETVVDALDKLLKKLGVKMETHDTEHFEIYGNKARLETTIHLRVGDFHFKRRTRVHMEKVDGQWFITIYESG”, 1.31; to “SEEEEMLKIALRIMLHTIHTGDEDLFSELADPNVKIKIDGVELVGWEFAHEWMREHIEQVPNVKLKIHSVKTIDGRVDSDLIRIFDGVTHKIRLISHKINGRWLIETITVN”, 0.964.
The figure for “DEEEIALKRIVELWLEVIETGDERITEHLLDPRARFEFENHSRHGRKELTRWMTQLGIKYLDLHRMHIRVFDGRLHVHIDGTEIYDGVRRKSEIRMDVLKVDGKWLVEEYSIRFK” is 1.25.
“DERDERLTEFLELYFKLWFTGDEDTFAHLADPNTRSVFNGKWIHGMESYSEWVEKHMRHLRFKDMKIRDSRVVDGQIHMNTEVEGEVNGQRYRVETRIILDVIDGRIKEVRLHIH” had a protease stability score of 1.24.
To “SEEEKHSHKAVEIITELLKTGDWHEILKNADPTTKSDFNGVELHGWEALQSILKFMGIDHVELKSIDVFNGRLTVHRNMHINGREHHLIIIALKVNGKWVLESMEVH” belongs 1.84.
To “HEEEEEARDLLKKLLEDFETGNEESLHEYADPNTRTIWDGVEFHGREWMLEIIKQIRVHSVHIHDVRLIDGVLIVKGRMDGDINGQRHTLEVNIFFLKINGRWFFHHMEFE” belongs 2.51.
To “SEEHRDVAKVIHDWFHDTITGDFKTLERLMDPNARLRINGQEFHGREEVRKFLERLLRHWREHSVEIEDINVQGDKASVHSHIDGEIDGRRIRMRSIFIILKFDGQWLMHSVIVE” belongs 2.68; to “DELQRDSKQAVKLWSESVLTGDERVLKEMADPDPRVEVGEYSSHGMHEVKRLLREMRIEVEDFKDENVRVYGEKLVVDGILHIRIHINGRDEHIDRRAILIMVKVDGRWYFKSMVYR”, 0.781; to “DEHEEDMERFLRELLDHWRTGDEDVIRELMDPHVKVDINGKIHHGREEAVHFLIEMRFRHFHVHDLRVQGEKADVDGRTHMEYNGRTVDQRITIHLVKIDGKWREKSITLE”, 1.24.
Regarding “SEDQEAMDRAIKIFEEIVDTGNERLSRENMDPRTRIVFEGVHLHGREEAVRHHRELWKRVDVMEMRTEDYRFFDGRVHQTTRLHLNYNGREETYETRFLVEKVNGKWFIKSIIIV”, the protease stability score was determined as 0.272.
To “DEEKRHHDEWRQFFLDSIKTGNWFELLKMIDPNTKILINGKEFHGRDAMHHFLTELRRRVDHLERFDIHHIDIQGNKAFDDTRLEGRINGVETHIDLLLISTKVNGVWYLKSVELR” belongs 2.13; to “DDEREEAKRAIEDLVRDLETGNWKHLHEFLDPNVRIRVGDKDIHGREEATHHLRRLHEKFKNLKVIIEHVDIVGNKIIEHGHIEIGDKSMEVEIIIIKINGRWYIKEIHIK”, 1.6.
To “SELEEHATKMLQMVLEWWFTGDEEIFKHLADPHVRVESLINGVEIRRVGMEKLHEWLKHVLIHLRFEDMKVKHLEIINGVARQDTRTHMDVNGKHVDLETHVVVVNVNGRLKSIKIEIR” belongs 0.971; to “DEMEEQIKRLIHLLAHYLRTGDEHSTEELADPNVRIHIDGKEYHGRELFIKFLHERLRHLGIKHIHIHIKDIREIDGRIHIDGELEQHIDGKERRMKQEMLVEKIDGQWHIKELEIE”, 2.59.

Values taken from the NTF2 design screens of Basanta et al. (2020).
